# From patent publication EP4800033A1, “HUMANIZED ANTI-CKAP4 ANTIBODY OR ANTIGEN-BINDING FRAGMENT THEREOF” (The University of Osaka, priority 2023, dated 2025)
# T1: human CKAP4 extracellular region (465-602 amino acids) (human, UniProt Q07065 465-602)
# T1 construct: also called extracellular region of CKAP4; extracellular domain of CKAP4
# T1 sequence: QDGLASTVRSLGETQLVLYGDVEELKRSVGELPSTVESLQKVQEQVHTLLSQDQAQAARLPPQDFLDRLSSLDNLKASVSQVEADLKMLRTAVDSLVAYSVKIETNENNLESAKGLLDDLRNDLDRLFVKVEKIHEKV
# T2: CKAP4 in lysates of mouse lung cancer cells Lewis Lung Carcinoma (LLC) (mouse, UniProt Q8BMK4 1-575)
# T2 construct: also called mouse CKAP4; endogenous CKAP4 (mouse tissues)
# T2 sequence (looked up): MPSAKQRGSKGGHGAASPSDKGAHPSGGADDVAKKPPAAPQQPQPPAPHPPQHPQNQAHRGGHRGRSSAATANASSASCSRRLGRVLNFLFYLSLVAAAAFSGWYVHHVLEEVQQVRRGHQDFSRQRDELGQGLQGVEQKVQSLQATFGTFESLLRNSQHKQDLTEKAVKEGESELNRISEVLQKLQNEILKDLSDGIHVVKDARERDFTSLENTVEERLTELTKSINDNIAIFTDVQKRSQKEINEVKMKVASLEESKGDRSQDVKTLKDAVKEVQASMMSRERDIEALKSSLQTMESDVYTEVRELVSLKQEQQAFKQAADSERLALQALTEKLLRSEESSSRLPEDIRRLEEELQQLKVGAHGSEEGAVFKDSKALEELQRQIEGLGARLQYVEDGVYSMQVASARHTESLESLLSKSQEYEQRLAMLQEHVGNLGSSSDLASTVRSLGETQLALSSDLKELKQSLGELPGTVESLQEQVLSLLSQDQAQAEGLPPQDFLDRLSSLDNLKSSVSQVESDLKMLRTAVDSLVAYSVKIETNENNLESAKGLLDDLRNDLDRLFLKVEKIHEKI
# How the values were obtained:
# S2-CP8 cells = assay: Combination therapy assay, S2-CP8 xenograft tumors; assay type: in vivo, mice; details: single agent
# Procedure: Hv1Lt1 antibody or control IgG (280 µg/dose) was intraperitoneally administered twice a week. Gemcitabine (100 µg/dose, once weekly) or nab-PTX (10 mg/kg, twice weekly) was intraperitoneally administered. While lenvatinib (1 mg/kg) or a 0.5% (wt/vol) methylcellulose 400 solution was orally administered once a day, 6 days per week, tumor formation was continued for an additional 21 days, after which the mice were euthanized. The volume and weight of the excised tumors were measured.
# HeLa S3 cells = assay: Propidium iodide nuclear staining / apoptosis; assay type: cell-based, human
# [1] = target: T1, human CKAP4 extracellular region …; assay: SPR (Biacore T200, 25 C), antibody captured on anti-mouse IgG CM5 chip, CKAP4 465-602 as analyte, 1:1 Langmuir fit
# [2] = target: T1, human CKAP4 extracellular region …; assay: SPR (Biacore T200, 25 C), antibody captured on anti-human IgG CM5 chip, CKAP4 465-602 as analyte, 1:1 Langmuir fit
# [3] = target: T2, CKAP4 in lysates of mouse lung cancer …; assay: blot of LLC cell lysate
Kd [2] [pM],koff [2] [s⁻¹],kon [2] [M⁻¹ s⁻¹],Molecule,further results
–,–,–,Nc1ccn([C@@H]2O[C@H](CO)[C@@H](O)C2(F)F)c(=O)n1 [gemcitabine],antitumor effects in vivo as single agents (S2-CP8 cells): antitumor effects
–,–,–,CN[C@@H]1C[C@H]2O[C@@](C)([C@@H]1OC)n1c3ccccc3c3c4c(c5c6ccccc6n2c5c31)C(=O)NC4 [staurosporine],nuclear staining with propidium iodide (HeLa S3 cells): strongly stained
–,–,–,"Mouse anti-CKAP4 antibody 3F11-2B10 (antibody, V domains shown, Mouse monoclonal antibody; also called Mouse antibody 3F11-2B10; original mouse anti-CKAP4 antibody) VH: VQLQQQPGTELVKPGASVKLSCKASGFTFTSYWMHWVKQRPGQGLEWIGNINPSNGGTNYNAKFKSKATLTVDKSSSTAYMQLSSLTSEDSAVYYCARWVSFSYRGAMDYWGQGTSVTVSS VL: DIVLTQSPAILSVTPGDGVSLSCRASRAIRNNLHWFQQKSHESPRLLIKYVSQSISGIPSRFSGSGSGTDFTLSVDSVETEDFGVYFCQQSDSWPYTFGGGTKLEIK",Kd [1]: 14500 pM; koff [1]: 0.0018 s⁻¹; kon [1]: 125000 M⁻¹ s⁻¹
761,1.14e-05,15000,"Humanized anti-CKAP4 antibody Hv1Lt1 (antibody, human IgG1, V domains shown, also called HvlLtl; Humanized antibody Hv1Lt1) VH: QVQLVQSGAEVKKPGASVKVSCKASGFTFTSYWMHWVRQAPGQGLEWIGNINPSNGGTNYNAKFKSRVTMTRDTSTSTVYMELSSLRSEDTAVYYCARWVSFSYRGAMDYWGQGTLVTVSS VL: EIVLTQSPDFQSVTPKEKVTITCRASRAIRNNLHWYQQKPDQSPKLLIKYVSQSISGVPSRFSGSGSGTDFTLTINSLEAEDAATYYCQQSDSWPYTFGQGTKLEIK",–
44.9,1.7e-06,37900,"Humanized anti-CKAP4 antibody Hv2Lt1 (antibody, human IgG1, V domains shown, also called Hv2Ltl; Humanized antibody Hv2Ltl) VH: QVQLVQSGAEVKKPGASVKVSCKASGYTFTSYWMHWVRQAPGQGLEWMGIINPSNGGTSYAQKFQGRVTMTRDTSTSTVYMELSSLRSEDTAVYYCARWVSFSYRGAMDYWGQGTLVTVSS VL: EIVLTQSPDFQSVTPKEKVTITCRASRAIRNNLHWYQQKPDQSPKLLIKYVSQSISGVPSRFSGSGSGTDFTLTINSLEAEDAATYYCQQSDSWPYTFGQGTKLEIK",binding result [3]: binds
